According to patent US20070172470A1, “Phosphatase regulation of nucleic acid transcription” (The Regents of the University of California, priority 2003, published 2007):

T1: SCP1 (Homo sapiens, UniProt Q9GZU7)
T1 construct: GST (N, cleaved yes); made in house
T1 sequence (Q9GZU7 1-260 isoform Q9GZU7-2): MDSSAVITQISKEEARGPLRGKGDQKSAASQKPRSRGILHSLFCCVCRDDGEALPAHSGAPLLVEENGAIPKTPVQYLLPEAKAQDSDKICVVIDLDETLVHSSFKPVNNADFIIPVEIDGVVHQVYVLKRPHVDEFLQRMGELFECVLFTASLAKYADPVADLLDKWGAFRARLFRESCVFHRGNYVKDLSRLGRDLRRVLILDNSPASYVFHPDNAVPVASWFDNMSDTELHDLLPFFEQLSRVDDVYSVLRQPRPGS

T2: GST-SCP1 (Homo sapiens, UniProt Q9GZU7)
T2 construct: made in house
T2 sequence (Q9GZU7 1-261): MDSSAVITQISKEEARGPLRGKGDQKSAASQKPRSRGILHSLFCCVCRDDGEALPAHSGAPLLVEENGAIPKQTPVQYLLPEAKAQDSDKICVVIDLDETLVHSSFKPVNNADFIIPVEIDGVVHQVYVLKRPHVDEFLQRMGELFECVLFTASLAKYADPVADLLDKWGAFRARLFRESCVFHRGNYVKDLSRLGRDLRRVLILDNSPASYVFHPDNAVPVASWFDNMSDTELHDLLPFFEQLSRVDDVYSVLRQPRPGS
T2 sequence (P35269 1-517 partner): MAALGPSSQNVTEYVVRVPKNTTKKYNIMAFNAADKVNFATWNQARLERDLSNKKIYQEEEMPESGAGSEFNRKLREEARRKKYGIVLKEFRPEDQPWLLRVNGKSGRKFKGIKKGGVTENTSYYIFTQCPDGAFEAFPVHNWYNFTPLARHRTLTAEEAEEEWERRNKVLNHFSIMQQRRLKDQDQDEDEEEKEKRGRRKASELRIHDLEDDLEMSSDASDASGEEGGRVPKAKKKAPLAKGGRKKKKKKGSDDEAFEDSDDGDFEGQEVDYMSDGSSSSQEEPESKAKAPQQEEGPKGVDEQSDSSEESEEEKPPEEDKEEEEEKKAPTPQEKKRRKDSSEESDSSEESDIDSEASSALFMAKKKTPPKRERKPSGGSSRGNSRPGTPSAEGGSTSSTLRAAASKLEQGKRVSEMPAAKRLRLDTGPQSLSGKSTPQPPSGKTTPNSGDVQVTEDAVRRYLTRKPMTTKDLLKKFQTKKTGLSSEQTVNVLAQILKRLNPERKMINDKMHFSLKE


How the values were obtained:
[1] = assay type: biochemical; settings: PNθP as substrate
RNAP IIO = molecular target: T3, RNAP IIO (Bos taurus, UniProt G3MZY8); test: CTD phosphatase assay with RNAP IIO as substrate; assay type: biochemical, calf; settings: substrates prepared by MAPK2/ERK2
T3 construct: Calf thymus RNAP IIA was purified; from tissue; host or cells: calf thymus
Protocol: FIGS. 2C and 2D show a CTD phosphatase assay of FCP1 and SCP1 on GST-CTDo and RNAP IIO prepared by MAPK2/ERK2. Increasing amounts of FCP1 or GST-SCP1 214 were assayed in the presence of 75 fmol GST-CTDo (lanes 1-6), 75 fmol RNAP IIO (lanes 7-12), or 75 fmol GST-CTDo and 75. fmol RNAP IIO (lanes 13-18). Both GST-CTDo and RNAP IIO substrates were prepared by the in vitro phosphorylation of CKII-labeled GST-CTDa or RNAP IIA by MAPK2/ERK2. All reactions were carried out in the presence of 7 pmol RAP74. CTD dephosphorylation of both GST-CTDo and RNAP IIO is shown by the increase in mobility of GST-CTDo to GST-CTDa and subunit IIo to IIa, respectively. The difference in the intensity of radiolabeled GST-CTDoand that of radiolabeled subunit IIo is not a reflection of a difference in the amount of substrates present, but of the higher efficiency with which CKII incorporates radiolabeled phosphates onto the most C-terminal serine of GST-CTDa compared to subunit. IIa.
Increasing amounts of GST-SCP1 214 were assayed in the presence of 3.7 fmol RNAP IIO prepared by CTDK1/CTDK2, TFIIH, P-TEFb, MAPK2/ERK2 and Cdc2 kinase. All reactions were carried out in-the presence of 7 pmol. RAP74. CTD dephosphorylation of RNAP IIO isozymes. by qSTSCP1 214 is shown by an increase in mobility of subunit IIo to that of IIa. The results are summarized in the graph showing the percent of RNAP IIO remaining as a function of increasing SCP1 concentrations.
Preparation and Purification of ^32P-RNAP IIO Isozymess and ^32P-GST-CTDo: Calf thymus RNAP IIA was purified by the method of Hodo and Blatti (30) with modifications as described by Kang and Dahmus (31). Specific isozymes of ^32p-labeled RNAP IIO were prepared by phosphorylation at the most C-terminal serine (CKII site) in the largest subunit of purified RNAP IIA with recombinant CKII and […], followed by CTD phosphorylation in the presence of 2 mM ATP with either purified CTDK1/CTDK2, TFIIH, P-TEFb, recombinant MAPK2/ERK2 or recombinant Cdc2 kinase. The RNAP IIO isozymes were individually purified over a DE53 column with a step elution of 500 mM KCl (28). Because only the most C-terminal serine is labeled with ^32p and lies outside. the consensus repeat, dephosphorylation by CTD phosphatase results in an electrophoretic mobility shift in SDS-PAGE of subunit IIo to the position of subunit IIa without the loss of label. Similarly, ^32P-labeled GST-CTDo was prepared from GST-CTDa by CKII followed by MAPK2/ERK2. GST-CTDo was purified over a glutathione-agarose column with a step elution of 15 mM glutathione.
(§1) CTD phosphatase assays utilizing RNAP IIO and GST-CTDo as substrate were performed as described previously (32) with minor modifications. Reactions were performed in 20 μl of CTD phosphatase buffer (50 mM Tris-HCl, pH 7.9, 10 mM MgCl2, 20% glycerol, 0.025% Tween 80, 0.1 mM EDTA, 5 mM DTT) in the presence of 20 mM KCl. Each reaction contained specified amounts of GST-CTDo and/or RNAP IIO and was carried out in the presence of 7 pmol RAP74. Reactions were initiated by the addition of FCP1 or SCP1 and incubated at 30° C. for 30 minutes. Assays were terminated by the addition of 5× Laemmli buffer, and RNAP II subunits and GST-CTD were resolved on a 5% SDS-PAGE gel. The gel images were developed by autoradiography and scanned by Molecular Dynamics Image Scanner Storm 860 in the phosphor screen mode. Data were quantitatively analyzed by ImageQuant software.

[2] = tested on: ElALuc, pGL3-Luc and Gal4-TATA-Luc constructs; test: Luciferase reporter assay, basal promoter activity; assay type: cell-based, human; settings: ElALuc, pGL3-Luc and Gal4-TATA-Luc constructs
Source text: (§2) Gal4-DNA binding domain-SCP1 fusion protein expression plasmids-were cotransfected in HEK293 cells with a Gal 4-TKLuc reporter plasmid and luciferase gene expression quantitated. In all panels, results of triplicate transfections are shown +/− SD. Data is expressed as fold-activation experimental/control). […] The indicated amounts of SCP1 or mutant SCP1 expression plasmids were cotransfected in HEK293 cells along with Gal 4-VP16 expression and Gal 4-TK-Luc reporter plasmids and luciferase activity was quantitated. […] The indicated receptor expression plasmids were cotransfected with their cognate promoter-reporter plasmids with or without SCP1 or mutant SCP1 expression plasmids. Cells were treated or untreated with receptor-specific ligands as described infra. […] The indicated concentrations of SCP1 and mutant SCP1 expression plasmids were cotransfected with LMX1 and E47 expression plasmids and the rat insulin 1 promoter-luciferase reporter gene. Luciferase activity was measured as described.
(§3) Tissue Culture and Transfections: Human 293, COS7 and CV1 cells were grown at 37° C. in DMEM supplemented with 10% normal calf serum (BRL). Sub-confluent cells were transfected in 6 well tissue culture dishes using Effectene (Qiagen) according to the manufacturer's instructions. Reporter and activator plasmids (100 ng each) and Flag SCP1 (80 ng) or its mutant were used per well. […]

[3] = tested on: Gal 4-TK-Luc reporter stimulated by Gal 4-VP16; test: Luciferase reporter assay, Gal 4-VP16 stimulated gene expression; assay type: cell-based, human; settings: HEK293 cells
Source text: as §2, §3

[4] = tested on: T3 receptor activity on DR+4 TRE-TK-Luc reporter; test: Luciferase reporter assay, ligand-activated T3 receptor; assay type: cell-based, human; settings: 100 nM T3, DR+4 TRE-TK-Luc
Source text: as §2, §3

[5] = tested on: glucocorticoid receptor activity on GRE-TK-Luc construct; test: Luciferase reporter assay, dexamethasone-stimulated glucocorticoid receptor; assay type: cell-based, human; settings: 100 nM dexamethasone
Source text: as §2, §3

[6] = tested on: PPARγ receptor activity on PPARγ promoter response element; test: Luciferase reporter assay, ligand-activated PPARγ receptor; assay type: cell-based, human
Source text: as §2, §3

[7] = tested on: P19 mouse embryonic stem cells; test: Neuronal differentiation of P19 cells; assay type: cell-based; settings: clonal P19 line, retinoic acid, selective medium
Protocol: P19 cells, C, differentiated GFP expressing P19 cells; D, differentiated SCP1-expressing P19 cells; F, differentiated REST/NRSF-expressing P19 cells. Numbers of NLC per field are shown. *p=0.001 compared to WT 19 cells; **p=0.008 compared to WT P19 cell using student's t-test.
P19 stably expressing REST/NRSF.
These cell lines were maintained in α-MEM/10%FBS with […] G418. To induce neuronal differentiation, P19 cells were allowed to aggregate in bacterial grade petri-dishes (Fisher) at a seeding density of 1×10^5cells/ml in the presence of 1×10^−6M all-trans retinoic acid. After 3 days of aggregation, cells were dissociated into single cells by 0.05% trypsin-0.53 mM EDTA (Gibco). Trypsin was removed by centrifugation and the cells were plated in 6 cm tissue culture dishes (Nunc). at a density of 1×10^5 cells/cm^2 in Neurobasal medium/N2 supplement (Invitrogen) in the presence or absence of 1 μg/ml fibronectin (Invitrogen). The cells were cultured for 5 days after which average cell numbers/field were determined. Cells were either lysed to prepare total RNA (Rneasy kit, Qiagen) or stained with TuJ1 antibody (Babco).
For immunostaining, cells were fixed for 10 mins with 4% paraformaldehyde. TuJ1 antibody was used at 1:2000 and secondary antibody used was FITC-conjuagated anti-mouse (1:3000).

SCP1 = molecular target: T1, SCP1; test: Effect of RAP74 on CTD phosphatase activity of SCP1; assay type: biochemical; settings: 7 pmol RAP74, 14.4 fmol RNAP IIO prepared by TFIIH
Protocol: Increasing amounts of the indicated forms of SCP1 and SCP2 were assayed in the presence of 14.4 fmol RNAP. IIO prepared by TFIIH. Reactions were carried out in the presence and in the absence of 7 pmol RAP74.
as §1

GST-SCP1 = molecular target: T2, GST-SCP1; test: Binding of RAP74 to GST-SCP1; settings: not to GST

Molecule | phosphatase activity [1] | CTD phosphatase activity on GST-CTDo and RNAP IIO (RNAP IIO) | increase of luciferase activity [2] | enhancement of Gal 4-VP16 stimulated activity [3] | ligand-activated T3 receptor activity [4] | dexamethasone-stimulated glucocorticoid receptor activity [5] | ligand-activated PPARγ receptor activity [6] | increase of the extent of precursor differentiation into neurons [7] | shift of the dose response curve for SCP1 catalyzed dephosphorylation of RNAP IIO to lower concentration (SCP1) | binding to GST-SCP1 (GST-SCP1)
mutant SCP1: D96E, D98N phosphatase-inactive dominant negative mutant of SCP1 261, SEQ ID NO:10 (protein, Drosophila) MDSSAVITQISKEEARGPLRGKGDQKSAASQKPRSRGILHSLFCCVCRDDGEALPAHSGAPLLVEENGAIPKTPVQYLLPEAKAQDSDKICVVIELNETLVHSSFKPVNNADFIIPVEIDGVVHQVYVLKRPHVDEFLQRMGELFECVLFTASLAKYADPVADLLDKWGAFRARLFRESCVFHRGNYVKDLSRLGRDLRRVLILDNSPASYVFHPDNAVPVASWFDNMSDTELHDLLPFFEQLSRVDDVYSVLRQPRPGS | inactive | lacked activity on either substrate | 1.5- to 6 fold | about 2 fold | enhanced | significantly enhanced | enhanced | > 2 fold | – | –
RAP74: RAP74 subunit of TFIIF (protein) MAALGPSSQNVTEYVVRVPKNTTKKYNIMAFNAADKVNFATWNQARLERDLSNKKIYQEEEMPESGAGSEFNRKLREEARRKKYGIVLKEFRPEDQPWLLRVNGKSGRKFKGIKKGGVTENTSYYIFTQCPDGAFEAFPVHNWYNFTPLARHRTLTAEEAEEEWERRNKVLNHFSIMQQRRLKDQDQDEDEEEKEKRGRRKASELRIHDLEDDLEMSSDASDASGEEGGRVPKAKKKAPLAKGGRKKKKKKGSDDEAFEDSDDGDFEGQEVDYMSDGSSSSQEEPESKAKAPQQEEGPKGVDEQSDSSEESEEEKPPEEDKEEEEEKKAPTPQEKKRRKDSSEESDSSEESDIDSEASSALFMAKKKTPPKRERKPSGGSSRGNSRPGTPSAEGGSTSSTLRAAASKLEQGKRVSEMPAAKRLRLDTGPQSLSGKSTPQPPSGKTTPNSGDVQVTEDAVRRYLTRKPMTTKDLLKKFQTKKTGLSSEQTVNVLAQILKRLNPERKMINDKMHFSLKE | – | – | – | – | – | – | – | – | approximately 10 fold | bound directly
